Results taken from PMC3853298, “The Concave Face of Decorin Mediates Reversible Dimerization and Collagen Binding*” (The Journal of Biological Chemistry, 2013).

Key:
[1] = target: the molecule itself; test: AUC; sedimentation velocity, 20 °C, 40,000 rpm, PBS, 0.028 (0.77 uM) to 3.4 mg/ml (94 uM); c(s) peaks of monomer and dimer integrated and fitted to a monomer-dimer equilibrium; dimer to monomers
[2] = target: the molecule itself; test: SEC-MALS; injected at 3 mg/ml (83 uM) onto Superdex 200 10/30, TBS (20 mM Tris, 150 mM NaCl, pH 7.5), 0.2 ml/min; three-detector method for the polypeptide mass

Protein | Kd [1] [nM] | stoichiometry N [2]
mouse decorin core protein, wild type (residues 45-354) (domain or fragment, N-linked glycans (four consensus sites for N-linked glycosylation), vector-encoded residues left at the N-terminus after cleavage of the BM-40 signal peptide; decorin, mouse, UniProt P28654, residues 45-354; the numbering includes the signal peptide; corresponds to the ordered residues of the bovine decorin core crystal structure; Core protein without the glycosaminoglycan attachment region; exists in a monomer-dimer equilibrium; also called WT; wild-type mouse …) APLALISMCPYRCQCHLRVVQCSDLGLDKVPWDFPPDTTLLDLQNNKITEIKEGAFKNLKDLHTLILVNNKISKISPEAFKPLVKLERLYLSKNQLKELPEKMPRTLQELRVHENEITKLRKSDFNGLNNVLVIELGGNPLKNSGIENGAFQGLKSLSYIRISDTNITAIPQGLPTSLTEVHLDGNKITKVDAPSLKGLINLSKLGLSFNSITVMENGSLANVPHLRELHLDNNKLLRVPAGLAQHKYIQVVYLHNNNISAVGQNDFCRAGHPSRKASYSAVSLYGNPVRYWEIFPNTFRCVYVRSAIQLGNYKAAA | 1370 ± 300 | 2
mouse decorin core protein R151E (residues 45-354) (domain or fragment, N-linked glycans (four consensus sites for N-linked glycosylation), vector-encoded residues left at the N-terminus after cleavage of the BM-40 signal peptide; decorin, mouse, UniProt P28654, residues 45-354; the numbering includes the signal peptide; R151E reverses a charge in LRR5; source: HEK293 c18 cells, episomally transfected (pCEP-Pu), secreted; purified from conditioned medium (HisTrap, Superdex 200); not shown: His6, C-terminal, kept) APLALISMCPYRCQCHLRVVQCSDLGLDKVPWDFPPDTTLLDLQNNKITEIKEGAFKNLKDLHTLILVNNKISKISPEAFKPLVKLERLYLSKNQLKELPEKMPRTLQELEVHENEITKLRKSDFNGLNNVLVIELGGNPLKNSGIENGAFQGLKSLSYIRISDTNITAIPQGLPTSLTEVHLDGNKITKVDAPSLKGLINLSKLGLSFNSITVMENGSLANVPHLRELHLDNNKLLRVPAGLAQHKYIQVVYLHNNNISAVGQNDFCRAGHPSRKASYSAVSLYGNPVRYWEIFPNTFRCVYVRSAIQLGNYKAAA | 470 ± 90 | 2
mouse decorin core protein Y51A/R52A/Q54A (residues 45-354) (domain or fragment, N-linked glycans (four consensus sites for N-linked glycosylation), vector-encoded residues left at the N-terminus after cleavage of the BM-40 signal peptide; decorin, mouse, UniProt P28654, residues 45-354; the numbering includes the signal peptide; triple mutation in the N-terminal cap; also called Y51A/R52A/Q54 mutant; source: HEK293 c18 cells, episomally transfected (pCEP-Pu), secreted; purified from conditioned medium (HisTrap, Superdex 200); not shown: …) APLALISMCPAACACHLRVVQCSDLGLDKVPWDFPPDTTLLDLQNNKITEIKEGAFKNLKDLHTLILVNNKISKISPEAFKPLVKLERLYLSKNQLKELPEKMPRTLQELRVHENEITKLRKSDFNGLNNVLVIELGGNPLKNSGIENGAFQGLKSLSYIRISDTNITAIPQGLPTSLTEVHLDGNKITKVDAPSLKGLINLSKLGLSFNSITVMENGSLANVPHLRELHLDNNKLLRVPAGLAQHKYIQVVYLHNNNISAVGQNDFCRAGHPSRKASYSAVSLYGNPVRYWEIFPNTFRCVYVRSAIQLGNYKAAA | 2300 ± 800 | 2
